Two substances from PMC6999705 can be followed below.

In one test the target is RGE-MFG-E8-Ig (mouse) (UniProt P21956). The test can be described thus: SEC.
A further test concerns the target MFG-E8-Ig (mouse) (UniProt P21956). Put plainly: SEC. A general note: Size exclusion chromatography separates by hydrodynamic size, large species first.

With “RGE-MFG-E8-Ig (from UniProt P21956 23-148) (Fc fusion)”, the stoichiometry N (commonly the number of molecules, sites or subunits per partner or assembly) with RGE-MFG-E8-Ig (mouse) stood at 2. In turn, “MFG-E8-Ig (from UniProt P21956 23-148) (Fc fusion)” yielded a stoichiometry N with MFG-E8-Ig (mouse) of 2.
